The values below are quoted from earlier work in publication PMC2964873.

This data set addresses plectin-1 95-117 (Homo sapiens) (UniProt Q15149).
UniProt Q15149, sequence (Q15149 95-117): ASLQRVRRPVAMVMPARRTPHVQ

As to Siah (from UniProt Q8IUQ4), the Kd (usually a measure of binding affinity in units of concentration) is 0.029 µM.
